The assay concerns the target huCD5-BTN (human) (UniProt P06127). Put plainly: BLI in tandem, huCD5-BTN saturated with UCHT2 first; competitor UCHT2.

The record followed here is US20260159603A1.

huCD5-BTN (human), sequence (P06127 25-372 limits assumed): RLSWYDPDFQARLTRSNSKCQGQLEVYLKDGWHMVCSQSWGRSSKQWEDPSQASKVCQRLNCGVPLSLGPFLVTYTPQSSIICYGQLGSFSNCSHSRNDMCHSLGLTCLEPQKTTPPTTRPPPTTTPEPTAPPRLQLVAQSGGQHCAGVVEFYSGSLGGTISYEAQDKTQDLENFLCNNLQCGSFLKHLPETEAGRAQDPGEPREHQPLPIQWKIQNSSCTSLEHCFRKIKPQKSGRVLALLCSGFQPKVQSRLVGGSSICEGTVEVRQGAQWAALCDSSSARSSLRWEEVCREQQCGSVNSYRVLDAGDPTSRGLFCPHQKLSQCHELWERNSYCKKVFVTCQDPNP

UCHT2 (antibody) had a response (Response Units) of 0.
